Blank lines part the entries; values can stand above or below the binder they belong to.
Key:
human LAG-3-his [1] = target: T1, human LAG-3-his (human, UniProt P18627 23-422); assay: ELISA on hLAG-3
T1 construct: range 23-422; also called hLAG-3-his; hLAG-3
T1 sequence: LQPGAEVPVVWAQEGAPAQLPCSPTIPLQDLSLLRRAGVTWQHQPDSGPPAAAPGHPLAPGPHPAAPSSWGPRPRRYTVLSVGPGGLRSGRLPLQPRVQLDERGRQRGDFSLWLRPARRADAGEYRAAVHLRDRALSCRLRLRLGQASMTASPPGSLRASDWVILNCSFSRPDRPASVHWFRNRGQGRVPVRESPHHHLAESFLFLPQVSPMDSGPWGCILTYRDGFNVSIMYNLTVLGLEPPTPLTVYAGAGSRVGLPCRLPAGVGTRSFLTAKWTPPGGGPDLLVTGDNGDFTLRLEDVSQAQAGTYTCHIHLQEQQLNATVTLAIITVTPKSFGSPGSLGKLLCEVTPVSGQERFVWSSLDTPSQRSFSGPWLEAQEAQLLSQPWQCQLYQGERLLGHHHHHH
Experimental: (§1) After discarding the liquid, a blocking solution of 5% skimmed milk (Bright skimmed milk powder) diluted with PBS was added at 230 μl per well, followed by incubating at 37° C. for 3 hours or 4° C. overnight (16-18 hours) for blocking. Subsequently, the blocking solution was discarded, and the micropiate was washed 5 times with PBST buffer (pH 7.4 PBS containing 0.05% tweeen-20). Then 50 μl/well of the supernatant (containing the antibody to be tested) or a starting concentration of 10 μg/ml of the antibody to be tested, which was diluted 5 times in gradient, was added, followed by incubating the mixture for 1 hour at 37° C. […] After washing the microplate 5 times with PBST, 50 μl/well TIMB chromogenic substrate (KPL, Cat. No.: 52-00-03) was added, and then incubated for […] at room temperature. Finally, 50 μl/well of 1 M H₂SO₄ was added to stop the reaction. The absorbance value at 450 nm was read by […] GO microplate reader (ThermoFisher, Cat. No.: 51119200). The clones with high affinity were selected according to the OD value or the EC₅₀ value was calculated (for antibodies with known concentrations).

human LAG-3-his [2] = target: T1, human LAG-3-his; assay: ELISA on hLAG-3; remark: listed apart in the source
Experimental: as §1

bio-LAG3-mFc [3] = target: T2, bio-LAG3-mFc (human, UniProt P18627 23-450, biotin-labelled); assay: blocking ELISA, LAG-3 on Daudi cells
T2 construct: also called hLAG-3
T2 sequence (looked up): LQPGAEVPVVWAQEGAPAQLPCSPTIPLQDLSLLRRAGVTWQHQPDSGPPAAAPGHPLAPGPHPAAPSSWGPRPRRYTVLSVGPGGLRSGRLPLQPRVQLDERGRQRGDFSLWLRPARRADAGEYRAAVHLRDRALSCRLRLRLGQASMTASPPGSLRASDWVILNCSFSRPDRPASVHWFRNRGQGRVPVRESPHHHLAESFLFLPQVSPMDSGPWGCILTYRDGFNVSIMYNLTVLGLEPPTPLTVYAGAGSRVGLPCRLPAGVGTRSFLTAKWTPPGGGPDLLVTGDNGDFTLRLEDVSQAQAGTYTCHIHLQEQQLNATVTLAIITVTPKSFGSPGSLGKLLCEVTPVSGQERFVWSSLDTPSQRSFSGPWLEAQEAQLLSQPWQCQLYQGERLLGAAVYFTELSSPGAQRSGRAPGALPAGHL

bio-LAG3-mFc [4] = target: T2, bio-LAG3-mFc; assay: blocking ELISA, LAG-3 on Daudi cells; remark: listed apart in the source
human LAG-3-his [5] = target: T1, human LAG-3-his; assay: ELISA on coated human LAG-3-his, anti-human HRP, OD450 (Example 3) [panel a]
Experimental: as §1

bio-LAG3-mFc [6] = target: T2, bio-LAG3-mFc; assay: blocking ELISA on fixed Daudi cells: antibody titrated against bio-LAG3-mFc binding to Daudi cells (MHC II), streptavidin-HRP, OD450 (Example 4) [panel b]
human PD-1 (hFc/his tag) [7] = target: T3, human PD-1 (hFc/his tag) (human, UniProt Q15116 21-167); assay: ELISA on human PD-1
T3 construct: range 21-167; not shown: hFc or his tag
T3 sequence (Q15116 21-167, form in doubt): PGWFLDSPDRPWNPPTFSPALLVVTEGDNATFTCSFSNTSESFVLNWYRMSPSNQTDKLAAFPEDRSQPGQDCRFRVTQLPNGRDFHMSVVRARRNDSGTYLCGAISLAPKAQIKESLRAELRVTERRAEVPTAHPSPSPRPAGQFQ

human LAG-3-his [8] = target: T1, human LAG-3-his; assay: ELISA on human LAG-3
human PD-1 (hFc/his tag) [9] = target: T3, human PD-1 (hFc/his tag); assay: blocking of PD-1 binding to PD-L1
bio-LAG3-mFc [10] = target: T2, bio-LAG3-mFc; assay: blocking of LAG3 binding to Daudi cells
Experimental: The Daudi cell line (ATCC, CCL-213) was expanded and seeded into 96-well microplate at a density of 2×10⁵ cells/well, and then centrifuged at 1600 rpm for 10 min; thereafter the cells were fixed with 100 μl/well of a fixative solution for immunostaining (Shanghai Beyotime Biotechnology Co., Ltd., Cat. No.: P0098) for half an hour at room temperature. After washing with PBS (BasalMedia Biology, Cat. No.: B320) once, 5% milk was added with 230 μl per well, and the microplate was incubated for 2 hours at 37° C. for blocking, then was washed three times with PBST. […] The microplate was then incubated for 1 hour at 37° C. and washed 5 times with PBST. 50 μl/well of 1:1000 diluted streptavidin-HRP secondary antibody (GenScript, Cat. No.: M00091) was added to the microplate and incubated for 1 hour at 37° C. After washing the microplate 5 times with PBST, 50 μl/well TMB (Surmodic, Cat. No.: TTMB-1000-01) was added to the microplate for color development, and 50 μl/well 1M H₂SO₄ was added to stop the reaction. The microplate was then read by a microplate reader (MuitiskanGo Thermo, model 511919200), and the data were analyzed using GraphPad prism 5.

human LAG-3-his [11] = target: T1, human LAG-3-his; assay: ELISA on human LAG3, sample kept at 37 C for 5 days
human PD-1 (hFc/his tag) [12] = target: T3, human PD-1 (hFc/his tag); assay: ELISA on human PD-1, sample kept at 37 C for 5 days
human LAG-3-his [13] = target: T1, human LAG-3-his; assay: ELISA on human LAG3, sample kept at 37 C for 10 days
human PD-1 (hFc/his tag) [14] = target: T3, human PD-1 (hFc/his tag); assay: ELISA on human PD-1, sample kept at 37 C for 10 days
human LAG-3-his [15] = target: T1, human LAG-3-his; assay: ELISA on human LAG3, sample stored at -80 C for 60 days
human PD-1 (hFc/his tag) [16] = target: T3, human PD-1 (hFc/his tag); assay: ELISA on human PD-1, sample stored at -80 C for 60 days
human PD-1 (hFc/his tag) [17] = target: T3, human PD-1 (hFc/his tag); assay: ELISA on coated human PD-1, OD450 (Example 13) [panel b]
human LAG-3-his [18] = target: T1, human LAG-3-his; assay: ELISA on coated human LAG-3, OD450 (Example 3, Example 13) [panel a]
Bio-LAG-his = target: T4, Bio-LAG-his (UniProt P18627 23-450, biotin-labeled); assay: double-sandwich ELISA: plate coated with PD-1, bispecific titrated, detected with Bio-LAG-his
T4 construct: Detection reagent of the double-sandwich ELISA; also called biotin-labeled LAG-3-his (ACROBiosystems); not shown: his tag of the bought product
T4 sequence (looked up): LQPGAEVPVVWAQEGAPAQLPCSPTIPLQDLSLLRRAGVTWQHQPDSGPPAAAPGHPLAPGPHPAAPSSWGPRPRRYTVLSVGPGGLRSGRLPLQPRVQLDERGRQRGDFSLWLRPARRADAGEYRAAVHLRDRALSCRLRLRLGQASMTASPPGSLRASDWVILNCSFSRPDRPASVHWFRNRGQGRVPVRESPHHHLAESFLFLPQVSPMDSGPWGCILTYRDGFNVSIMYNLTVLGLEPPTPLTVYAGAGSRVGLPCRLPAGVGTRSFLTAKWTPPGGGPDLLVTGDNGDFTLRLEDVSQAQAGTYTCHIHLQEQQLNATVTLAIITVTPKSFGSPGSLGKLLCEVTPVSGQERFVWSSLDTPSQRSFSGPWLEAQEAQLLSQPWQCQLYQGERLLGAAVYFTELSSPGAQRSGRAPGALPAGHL
Experimental: Finally, 50 μl/well of 1M H₂SO₄ was added to stop the reaction.

human LAG-3-his [19] = target: T1, human LAG-3-his; assay: ELISA on human LAG3, sample stored at -80 C for 60 days; sample stored at -80 C for 60 days (reference value in brackets)

EC50 (human LAG-3-his [1]): 0.41 nM | EC50 (human LAG-3-his [2]): 0.166 nM | IC50 (bio-LAG3-mFc [3]): 2.3 nM | fold better IC50 than Ref (bio-LAG3-mFc [3]): ~4 fold | IC50 (bio-LAG3-mFc [4]): 1.55 nM | EC50 (read off the curve) (human LAG-3-his [5]): ~0.4 nM | IC50 (read off the curve) (bio-LAG3-mFc [6]): ~2 nM
B1: chimeric antibody mab23c (antibody, human IgG4 S228P, kappa, V domains shown)
VH: QVQLQQSGAELVRPGASVTLSCKASGYTFTDYEMHWVKQTPVHGLEWIGGIDPETEGIAYNQKFRGKAILTADKSSITAYMELRSLTSEDSAVYYCTNSNYYGGREAWFAYWGQGTLVTVSG
VL: DIQMIQSPSSLSASLGERVSLTCRASQDIGSSLNWLQQEPDGTIKRLIYATSSLDSGVPKRFSGSRSGSDYSLTISSLESEDFVDYYCLQYVTSPLTFGAGTKLELKR
notes: hIgG4

EC50 (human PD-1 (hFc/his tag) [7]): 0.128 nM | EC50 (human LAG-3-his [8]): 0.179 nM | IC50 (human PD-1 (hFc/his tag) [9]): 0.268 nM | IC50 (bio-LAG3-mFc [10]): 77.5 nM | EC50 (human LAG-3-his [11]): 0.251 nM | EC50 (human PD-1 (hFc/his tag) [12]): 0.293 nM | EC50 (human LAG-3-his [13]): 0.392 nM | EC50 (human PD-1 (hFc/his tag) [14]): 0.324 nM | EC50 (human LAG-3-his [15]): 0.298 nM | EC50 (human PD-1 (hFc/his tag) [16]): 0.227 nM | EC50 (read off the curve) (human PD-1 (hFc/his tag) [17]): ~0.1 nM | EC50 (read off the curve) (human LAG-3-his [18]): ~0.2 nM | EC50 (Bio-LAG-his): 1.09 nM | EC50 (human LAG-3-his [19]): 0.298 nM
B2: bispecific antibody (SBody) LB2371 (bispecific antibody, human IgG4 S228P, kappa)
light: EIVLTQSPATLSLSPGERATLSCRASKGVSTSGYSYLHWYQQKPGQAPRLLIYLASYLESGVPARFSGSGSGTDFTLTISSLEPEDFAVYYCQHSRDLPLTFGGGTKVEIKRTVAAPSVFIFPPSDEQLKSGTASVVCLLNNFYPREAKVQWKVDNALQSGNSQESVTEQDSKDSTYSLSSTLTLSKADYEKHKVYACEVTHQGLSSPVTKSFNRGEC
heavy: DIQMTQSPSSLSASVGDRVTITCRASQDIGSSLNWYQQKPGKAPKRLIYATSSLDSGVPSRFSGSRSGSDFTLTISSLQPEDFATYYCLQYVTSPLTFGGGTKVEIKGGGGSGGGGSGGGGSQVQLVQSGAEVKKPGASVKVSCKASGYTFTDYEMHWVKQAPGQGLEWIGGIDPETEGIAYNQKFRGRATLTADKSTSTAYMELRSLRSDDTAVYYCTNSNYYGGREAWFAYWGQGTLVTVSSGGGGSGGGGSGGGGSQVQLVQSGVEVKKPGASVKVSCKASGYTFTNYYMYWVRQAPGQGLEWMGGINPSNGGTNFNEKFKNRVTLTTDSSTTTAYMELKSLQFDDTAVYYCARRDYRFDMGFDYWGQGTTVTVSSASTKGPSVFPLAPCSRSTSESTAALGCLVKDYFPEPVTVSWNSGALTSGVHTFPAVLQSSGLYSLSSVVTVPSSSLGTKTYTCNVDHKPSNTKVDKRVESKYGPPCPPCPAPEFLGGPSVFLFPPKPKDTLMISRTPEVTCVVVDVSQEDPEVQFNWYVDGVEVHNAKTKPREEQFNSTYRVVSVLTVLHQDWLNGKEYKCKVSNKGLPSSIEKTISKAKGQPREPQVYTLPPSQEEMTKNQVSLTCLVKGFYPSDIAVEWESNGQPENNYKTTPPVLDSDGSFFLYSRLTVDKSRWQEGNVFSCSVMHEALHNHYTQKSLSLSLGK
notes: Ab2317VL-(G4S)3-Ab2317VH-(G4S)3-PemVH-Hc (hIgG4)
